Starred links: 1 amine or outer side, 2 acyl side, 3 side chain; linkers in the order of their positions; H or OH if unused. Non-standard residues stand in square brackets, D forms with d. Primed or numbered codes have the meaning given here. *: point of attachment. AC4Abu = α-carboxy-4-aminobutyric acid, O=C(C(CCN[*:1])C(=O)[*:3])[*:2]; dBip = N[C@H](Cc1ccc(-c2ccccc2)cc1)C(=O)O; Oic = O=C(O)[C@@H]1C[C@@H]2CCCC[C@@H]2N1; Phe(4-Cl) = N[C@@H](Cc1ccc(Cl)cc1)C(=O)O; Phe(4-I) = N[C@@H](Cc1ccc(I)cc1)C(=O)O; γGlu = O=C(O)[C@H](CCC(=O)[*:2])N[*:1]; 2Nal = N[C@@H](Cc1ccc2ccccc2c1)C(=O)O; NMehArg = CN[C@@H](CCCCNC(=N)N)C(=O)O; HOOC(CH2)8CO = O=C(O)CCCCCCCCC(=O)*; NMeR = CN[C@@H](CCCNC(=N)N)C(=O)O; Palmitoyl = CCCCCCCCCCCCCCCC(=O)*; Tridecanoyl = CCCCCCCCCCCCC(=O)*; hArg = N=C(N)NCCCC[C@H](N)C(=O)O; Cha = N[C@@H](CC1CCCCC1)C(=O)O; NMeL = CN[C@@H](CC(C)C)C(=O)O; αMeL = CC(C)C[C@](C)(N)C(=O)O; αMeP = C[C@@]1(C(=O)O)CCCN1; AC4Abu″ = not defined here; β3hP = O=C(O)C[C@@H]1CCCN1; Nle = CCCC[C@H](N)C(=O)O; Pip′ = not defined here; Dap = NC[C@H](N)C(=O)O; AEEA = NCCOCCOCC(=O)O; Aib = CC(C)(N)C(=O)O
T1: rat APJ receptor (rat, UniProt Q9JHG3 1-377)
T1 sequence (looked up): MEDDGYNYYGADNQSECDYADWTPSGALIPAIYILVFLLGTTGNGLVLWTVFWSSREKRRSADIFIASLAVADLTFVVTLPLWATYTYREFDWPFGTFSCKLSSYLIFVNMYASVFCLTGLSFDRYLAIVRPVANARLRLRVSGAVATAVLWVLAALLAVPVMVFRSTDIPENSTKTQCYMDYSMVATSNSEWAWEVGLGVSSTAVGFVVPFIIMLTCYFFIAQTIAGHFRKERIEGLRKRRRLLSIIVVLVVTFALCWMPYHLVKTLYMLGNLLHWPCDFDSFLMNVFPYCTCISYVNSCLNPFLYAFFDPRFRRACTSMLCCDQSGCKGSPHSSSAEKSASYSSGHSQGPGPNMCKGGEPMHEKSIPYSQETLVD

T2: rat APJ receptor (rat, UniProt Q9JHG3 1-377)
T2 sequence (looked up): T1 sequence (looked up)

B1: SEQ ID NO: 70 (peptide)
peptide: QRPRLSHKGPXPF
modifications: {Acetyl-NH}QrP[hArg][aMeLeu]SHKGP[Nle]P[4-Cl-F]{COOH}
B2: SEQ ID NO: 510 (peptide)
peptide: XXXQRPRLSHKGPXPF
modifications: {DDDA}[AC4Abu][Aeea][Aeea]QRP[NMeArg]LSHKGP[Nle]P[4-Cl-F]{COOH}
B3: SEQ ID NO: 461 (peptide)
peptide: XXXQRPRLSHKGPXPF
modifications: {AdpA}[AC4Abu][Aeea][Aeea]QRP[NMeArg]LSHKGP[Nle]P[4-Cl-F]{COOH}
B4: SEQ ID NO: 78 (peptide)
peptide: Ac-[hArg][dR]Q[hArg]E[dR][NMeL]SHKG[Oic][Phe(4-I)]P[dBip]-OH
B5: SEQ ID NO: 513 (peptide)
peptide: XXXQRPRLSHKGPXPF
modifications: {ODDA}[AC4Abu][Aeea][Aeea]QRP[NMeArg]LSHKGP[Nle]P[4-Cl-F]{COOH}
B6: SEQ ID NO: 514 (peptide)
peptide: XXXQRPRLSHKGPXPF
modifications: {hexanoyl}[AC4Abu][Aeea][Aeea]QrP[hArg][aMeLeu]SHKGP[Nle]P[4-Cl-F]{COOH}
B7: SEQ ID NO: 15 (peptide)
peptide: KLRKHNCLQRRCMPLHSRVPFP
B8: SEQ ID NO: 630 (peptide)
peptide: Palmitoyl-[AC4Abu″][AEEA][AEEA][dQ]RP[NMeR][αMeL]S[Dap]KG[Oic][Nle][β3hP][Phe(4-Cl)]-OH
modifications: reading uncertain
B9: SEQ ID NO: 68 (peptide)
peptide: QRPRLSHKGPXPF
modifications: {Acetyl-NH}QRP[NMeArg]LSHKGP[Nle]P[4-Cl-F]{COOH}
B10: SEQ ID NO: 73 (peptide)
peptide: Ac-QR[NMehArg]LSHKGP[Nle]P[Phe(4-Cl)]-OH
SMILES: CCCC[C@H](NC(=O)[C@@H]1CCCN1C(=O)CNC(=O)[C@H](CCCCN)NC(=O)[C@H](Cc1c[nH]cn1)NC(=O)[C@H](CO)NC(=O)[C@H](CC(C)C)NC(=O)[C@H](CCCCNC(=N)N)N(C)C(=O)[C@H](CCCNC(=N)N)NC(=O)[C@H](CCC(N)=O)NC(C)=O)C(=O)N1CCC[C@H]1C(=O)N[C@@H](Cc1ccc(Cl)cc1)C(=O)O
B11: SEQ ID NO: 593 (peptide)
peptide: XXXQRPRLSHKGPXPF
modifications: {Palm}[AC4Abu][Aeea][Aeea]QRP[NMeArg]LSHKGP[Nle]P[4-Cl-F]{COOH}
B12: SEQ ID NO: 592 (peptide)
peptide: XXXQRPRLSHKGPXPF
modifications: {Myristyl-NH}[AC4Abu][Aeea][Aeea]QRP[NMeArg]LSHKGP[Nle]P[4-Cl-F]{COOH}
B13: SEQ ID NO: 71 (peptide)
peptide: QRPRLSHKGPXPF
modifications: {Acetyl-NH}Q[hArg]P[NMeArg][aMeLeu]SHKGP[Nle]P[4-Cl-F]{COOH}
B14: SEQ ID NO: 291 (peptide)
peptide: {HOOC(CH2)8CO}-[γGlu][AEEA][AEEA][hArg][dR]Q[hArg]P[dR][NMeL]SHKG[Oic][Phe(4-I)]P[dBip]-OH
SMILES: CC(C)C[C@@H](C(=O)N[C@@H](CO)C(=O)N[C@@H](Cc1c[nH]cn1)C(=O)N[C@@H](CCCCN)C(=O)NCC(=O)N1[C@H](C(=O)N[C@@H](Cc2ccc(I)cc2)C(=O)N2CCC[C@H]2C(=O)N[C@H](Cc2ccc(-c3ccccc3)cc2)C(=O)O)C[C@@H]2CCCC[C@@H]21)N(C)C(=O)[C@@H](CCCNC(=N)N)NC(=O)[C@@H]1CCCN1C(=O)[C@H](CCCCNC(=N)N)NC(=O)[C@H](CCC(N)=O)NC(=O)[C@@H](CCCNC(=N)N)NC(=O)[C@H](CCCCNC(=N)N)NC(=O)COCCOCCNC(=O)COCCOCCNC(=O)CC[C@H](NC(=O)CCCCCCCCC(=O)O)C(=O)O
B15: SEQ ID NO: 559 (peptide)
peptide: XXXQRPRLSHKGPXPF
modifications: {hexanoyl}[AC4Abu][Aeea][Aeea]QRP[hArg][aMeLeu]SHKGP[Nle]P[4-Cl-F]{COOH}
B16: SEQ ID NO: 515 (peptide)
peptide: XXXQRPRLSHKGPXPF
modifications: {AdpA}[AC4Abu][Aeea][Aeea]QrP[hArg][aMeLeu]SHKGP[Nle]P[4-Cl-F]{COOH}
B17: SEQ ID NO: 491 (peptide)
peptide: XXXQRPRLSHKGPXPF
modifications: {Butanoyl}[AC4Abu][Aeea][Aeea]QRP[NMeArg]LSHKGP[Nle]P[4-Cl-F]{COOH}
B18: Apelin polypeptide SEQ ID NO: 459 (peptide)
peptide: XXXQRPRLSHKGPXPF
modifications: {TDA}[AC4Abu][Aeea][Aeea]QRP[NMeArg][NMeLeu]SHKGP[Nle]P[4-Cl-F]{COOH}
B19: Apelin polypeptide SEQ ID NO: 287 (peptide)
peptide: XXXQRPRLSHKGPXPF
modifications: {TDA}[AC4Abu][Aeea][Aeea]QRP[NMeArg]LSHKGP[Nle]P[4-Cl-F]{COOH}
B20: Apelin polypeptide SEQ ID NO: 418 (peptide)
peptide: Tridecanoyl-[AC4Abu″][AEEA][AEEA]QRP[NMeR][Cha]SHKG[αMeP][Nle]P[Phe(4-Cl)]-OH
modifications: reading uncertain
B21: Apelin polypeptide SEQ ID NO: 454 (peptide)
peptide: Tridecanoyl-[AC4Abu″][AEEA][AEEA][dQ][hArg][Aib][dR][Cha]SHKG[Oic][Nle]P[Phe(4-Cl)]-OH
modifications: reading uncertain; also: printed as {TDA}[AC4Abu][Aeea][Aeea]q[hArg][Aib]r[Cha]SHKG[Oic][Nle]P[4-Cl-F]{COOH}
B22: Apelin polypeptide SEQ ID NO: 458 (peptide)
peptide: XXXQRPRLSHKGPXPF
modifications: {TDA}[AC4Abu][Aeea][Aeea]QRP[NMeArg][BLeu]SHKGP[Nle]P[4-Cl-F]{COOH}
B23: Apelin polypeptide SEQ ID NO: 408 (peptide)
peptide: Tridecanoyl-[AC4Abu″][AEEA][AEEA]Q[hArg]P[NMeR][Cha]SHKGP[Nle]P[Phe(4-Cl)]-OH
modifications: reading uncertain
B24: Apelin polypeptide SEQ ID NO: 426 (peptide)
peptide: XXXQRPRLSHKGPXPF
modifications: {TDA}[AC4Abu][Aeea][Aeea]QRP[NMeArg]LSHKGP[Nle][BhPro][4-Cl-F]{COOH}
B25: Apelin polypeptide SEQ ID NO: 485 (peptide)
peptide: XXXQRPRLSHKGPXPF
modifications: {TDA}[AC4Abu][Aeea][Aeea]QrP[hArg][aMeLeu]SHKGP[Nle]P[4-Cl-F]{COOH}
B26: Apelin polypeptide SEQ ID NO: 419 (peptide)
peptide: Tridecanoyl-[AC4Abu][AEEA][AEEA]QRP[NMeR][Cha]SAKG[Oic][Nle]P[Phe(4-Cl)]-OH
SMILES: CCCCCCCCCCCCC(=O)NCCC(C(=O)O)C(=O)NCCOCCOCC(=O)NCCOCCOCC(=O)N[C@@H](CCC(N)=O)C(=O)N[C@@H](CCCNC(=N)N)C(=O)N1CCC[C@H]1C(=O)N(C)[C@@H](CCCNC(=N)N)C(=O)N[C@@H](CC1CCCCC1)C(=O)N[C@@H](CO)C(=O)N[C@@H](C)C(=O)N[C@@H](CCCCN)C(=O)NCC(=O)N1[C@H](C(=O)N[C@@H](CCCC)C(=O)N2CCC[C@H]2C(=O)N[C@@H](Cc2ccc(Cl)cc2)C(=O)O)C[C@@H]2CCCC[C@@H]21
B27: Apelin polypeptide SEQ ID NO: 457 (peptide)
peptide: XXXQRPRLSHKGPXPF
modifications: {TDA}[AC4Abu][Aeea][Aeea]QRP[NMeArg][aMeLeu]SHKGP[Nle]P[4-Cl-F]{COOH}
B28: Apelin polypeptide SEQ ID NO: 468 (peptide)
peptide: XXXQRPRLSHKGPXPF
modifications: {TDA}[AC4Abu][Aeea][Aeea]QRP[NMeArg]L[aMeS]HKGP[Nle]P[4-Cl-F]{COOH}
B29: Apelin polypeptide SEQ ID NO: 355 (peptide)
peptide: XXXQRPRLSHKGPXPF
modifications: {TDA}[AC4Abu][Aeea][Aeea]QRP[hArg]LSHKGP[Nle]P[4-Cl-F]{COOH}
B30: Apelin polypeptide SEQ ID NO: 518 (peptide)
peptide: Tridecanoyl-[AC4Abu″][AEEA][AEEA][dQ]RP[NMeR][αMeL][BhSer]HKG[Oic][Nle][αMeP][Phe(4-Cl)]-OH
modifications: reading uncertain
B31: Apelin polypeptide SEQ ID NO: 469 (peptide)
peptide: XXXQRPRLSHKGPXPF
modifications: {TDA}[AC4Abu][Aeea][Aeea]QRP[NMeArg]LS[rHis]KGP[Nle]P[4-Cl-F]{COOH}
B32: Apelin polypeptide SEQ ID NO: 456 (peptide)
peptide: XXXQRPRLSHKGPXPF
modifications: {TDA}[AC4Abu][Aeea][Aeea]QrP[NMehArg][aMeLeu]SHKGP[Nle]P[4-Cl-F]{COOH}
B33: Apelin polypeptide SEQ ID NO: 387 (peptide)
peptide: XXXQRPRLSHKGPXPF
modifications: {TDA}[AC4Abu][Aeea][Aeea]QRP[NMeArg][aMeLeu]SHKG[aMePro][Nle]P[4-Cl-F]{COOH}
B34: Apelin polypeptide SEQ ID NO: 357 (peptide)
peptide: XXXQRPRLSHKGPXPF
modifications: {TDA}[AC4Abu][Aeea][Aeea]Q[hArg]P[hArg]LSHKGP[Nle]P[4-Cl-F]{COOH}
B35: Apelin polypeptide SEQ ID NO: 416 (peptide)
peptide: Tridecanoyl-[AC4Abu″][AEEA][AEEA]QRP[NMeR][Cha]SHKG[Pip′][Nle]P[Phe(4-Cl)]-OH
modifications: reading uncertain
B36: Apelin polypeptide SEQ ID NO: 400 (peptide)
peptide: XXXQXPRLSHKGPXPF
modifications: {TDA}[AC4Abu][Aeea][Aeea]Q[Cit]P[NMeArg]LSHKGP[Nle]P[4-Cl-F]{COOH}
B37: Apelin polypeptide SEQ ID NO: 481 (peptide)
peptide: Tridecanoyl-[AC4Abu″][AEEA][AEEA][dR][dQ][hArg]P[hArg][Cha]SHKG[Oic][Nle]P[Phe(4-Cl)]-OH
modifications: reading uncertain; also: printed as {TDA}[AC4Abu][Aeea][Aeea]rq[hArg]P[hArg][Cha]SHKG[Oic][Nle]P[4-Cl-F]{COOH}
B38: Apelin polypeptide SEQ ID NO: 483 (peptide)
peptide: XXXQRPRLSHKGPXPF
modifications: {TDA}[AC4Abu][Aeea][Aeea]Q[hArg]P[NMehArg]LSHKGP[Nle]P[4-Cl-F]{COOH}
B39: Apelin polypeptide SEQ ID NO: 484 (peptide)
peptide: XXXQRPRLSHKGPXPF
modifications: {TDA}[AC4Abu][Aeea][Aeea]Q[NMehArg]P[NMeArg][aMeLeu]SHKGP[Nle]P[4-Cl-F]{COOH}
B40: Apelin polypeptide SEQ ID NO: 471 (peptide)
peptide: Tridecanoyl-[AC4Abu″][AEEA][AEEA]QRP[NMehArg]LSHKGP[Nle]P[2Nal]-OH
modifications: reading uncertain; also: printed as {TDA}[AC4Abu][Aeea][Aeea]QRP[NMehArg]LSHKGP[Nle]P[2Nal]{COOH}

target: T1, rat APJ receptor; assay: cell-based or functional assay

EC50 Rat APJ Receptor [nM] | Binder
9.74 | B1
0.903 | B2
1 | B3
0.871 | B4
6.12 | B5
6.69 | B6
16.1 | B7
0.486 | B8
0.384 | B9
47.2 | B10
0.231 | B11
0.598 | B12
2.75 | B13
2.47 | B14
9.15 | B15
5.94 | B16
0.453 | B17

target: T2, rat APJ receptor; assay: cell-based or functional assay

EC50 Rat APJ Receptor (GTPγS assay) [nM] | Binder
0.23 | B18
0.242 | B19
0.253 | B20
5.35 | B21
0.12 | B22
0.184 | B23
0.382 | B24
0.41 | B25
0.379 | B26
0.0564 | B27
0.165 | B28
0.06 | B29
0.444 | B30
1.33 | B31
0.178 | B32
0.166 | B33
0.24 | B34
0.346 | B35
0.42 | B36
0.341 | B37
0.229 | B38
0.767 | B39
0.0974 | B40
